Data from patent US10427126B2, “System and method for longitudinal analysis of peptide synthesis” (Roche Sequencing Solutions, Inc., priority 2015, dated 2019).

Key:
[1] = molecular target: T1, streptavidin (Streptomyces avidinii, UniProt P22629); conditions: peptide including the binder sequence; cited from earlier work
[2] = molecular target: T1, streptavidin; experiment: Cy5-labeled streptavidin binding to control peptide features on a peptide array (fluorescence signal output, FIG. 12)
Excerpt: Whereas the hypothetical data presented in FIGS. 8-11 are for two example peptide arrays, actual signal output data following interrogation of a population of control peptide features can be presented in alternative or additional formats. With reference to FIG. 12, data was collected for a peptide array synthesis operation including twelve total synthesis periods. Control peptide features having the streptavidin binder sequence WTHPQFE (SEQ ID NO:1) were synthesized over three consecutive and uninterrupted synthesis periods (e.g., see FIG. 3) with control peptide features synthesized beginning with each of the first ten synthesis periods. […] The signal output is measured for each of the control peptide features using one or more interrogation and detection techniques as described herein. […]
Control peptide features are analyzed following the completion of a synthesis operation by array deprotection, streptavidin binding, and array scanning. […] Streptavidin fluorescence signal is detected by scanning the array at 2 μm resolution and 15% gain with a 635 nm excitation wavelength using an MS200 microarray scanner.
Box and whisker plots for analysis of control peptide feature data are prepared in a two-part process. First, data is aggregated for a plurality of synthesis operations that were individually determined to pass a quality control assessment. […]

T1 sequence (P22629 25-183, species assumed): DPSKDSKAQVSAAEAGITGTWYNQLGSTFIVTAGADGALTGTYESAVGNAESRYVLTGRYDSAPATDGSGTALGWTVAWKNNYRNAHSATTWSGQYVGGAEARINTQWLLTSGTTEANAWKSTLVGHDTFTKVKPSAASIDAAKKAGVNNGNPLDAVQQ

Substance | binding by streptavidin [1] | signal output as percentage of the aggregate data (2^14.3 units) ([2]; fourth synthesis operation, synthesis period four) | signal output as percentage of the aggregate data (2^14.3 units) ([2]; third synthesis operation)
FDEWL | can be bound by streptavidin | – | –
WTHPQFE | – | about 5% | about 54%
